Reference: patent US20100028347A1 (Eli Lilly, published 2010)

How the values were obtained:
[1] = target: T1, recombinant human VEGFR-1 Fc (human, UniProt P17948-2 27-687, limits assumed); assay: ELISA: plate coated with HuVEGFR-1-Fc 100 ng/well, goat anti-human kappa-HRP, O.D. 450
T1 construct: Bought from R&D Systems; also called rhuVEGFR-1 Fc; HuVEGFR-I-Fc; not shown: Fc part
Procedure: TMB (3,3′,5,5′-tetra-methylbenzidine) substrate (Kierkegaard and Perry Lab, Inc., Gaithersburg, Md.) was used for color development following the manufacturer's instruction. The absorbance at 450 nanometers (nm) was read for quantification of binding activity of antibodies. For identification of the hybridomas producing anti-VEGFR-I antibodies, hybridoma supernatants were preincubated with VEGFR-I AP for 1 hour. […] PNPP (p-nitrophenyl phosphate) substrate for AP was used for color development following the manufacturer's instruction. The absorbance at 405 nm was read for quantification of VEGFR-I binding to VEGF or P1GF. Optical density (OD) values were read on a microtiter plate reader (Molecular Devices Corp., Sunnyvale, Calif.). ED50 and IC50 of the antibodies were analyzed using GraphPad Prism 3 software (GraphPad Software, Inc., San Diego, Calif.).
HuVEGFR-I-Fc, mouse VEGFR-I-AP (hnClone Systems) or huVEGFR-2-AP (ImClone Systems) (100 ng/well) was coated on 96 strip-well plates and blocked with 5% milk/PBS. […]

[2] = target: T2, recombinant extracellular domain of VEGFR-1 (UniProt P17948 27-758, limits assumed); assay: SPR, BIAcore 2000, VEGFR-1 extracellular domain immobilised at low density
T2 construct: extracellular domain
Procedure: Affinities of anti-VEGFR-1 antibody clones 6F9, 13 G12, 15F1 1, 18F1 were determined by plasmon resonance technology using BIAcore 2000 (Pharmacia, Piscataway, N.J.) according to the procedures provided by the manufacturer. Kinetic analyses of the antibodies were performed by immobilization of recombinant extracellular domain of VEGFR-I onto a sensor surface at a low density. The (kₒₙ) and dissociation (kₒ_{^ff}) rates were determined using the BIAevaluation 2.1 software provided by the manufacturer.

T2 sequence (P17948 27-758 limits assumed): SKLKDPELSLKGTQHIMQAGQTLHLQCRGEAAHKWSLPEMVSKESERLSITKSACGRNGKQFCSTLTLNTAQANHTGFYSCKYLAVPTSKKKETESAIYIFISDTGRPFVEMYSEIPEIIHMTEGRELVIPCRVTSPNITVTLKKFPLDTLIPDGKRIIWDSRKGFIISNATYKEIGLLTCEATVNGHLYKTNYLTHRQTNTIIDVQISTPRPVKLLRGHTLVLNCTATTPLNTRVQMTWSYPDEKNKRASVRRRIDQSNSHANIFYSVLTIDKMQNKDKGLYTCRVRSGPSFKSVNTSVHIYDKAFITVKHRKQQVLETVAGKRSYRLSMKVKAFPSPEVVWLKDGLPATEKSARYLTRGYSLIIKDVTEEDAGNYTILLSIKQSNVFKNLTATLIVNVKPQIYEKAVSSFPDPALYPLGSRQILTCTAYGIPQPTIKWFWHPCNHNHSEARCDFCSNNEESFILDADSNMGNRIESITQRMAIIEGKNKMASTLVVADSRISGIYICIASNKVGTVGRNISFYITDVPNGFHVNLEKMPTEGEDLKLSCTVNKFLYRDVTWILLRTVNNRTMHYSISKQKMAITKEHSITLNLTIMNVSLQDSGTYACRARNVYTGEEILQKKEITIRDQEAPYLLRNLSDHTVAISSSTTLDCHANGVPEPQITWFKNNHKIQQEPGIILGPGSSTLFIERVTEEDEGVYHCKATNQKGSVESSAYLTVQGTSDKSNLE
T1 sequence (P17948 other isoform, or with tags, fused parts or gaps limits assumed): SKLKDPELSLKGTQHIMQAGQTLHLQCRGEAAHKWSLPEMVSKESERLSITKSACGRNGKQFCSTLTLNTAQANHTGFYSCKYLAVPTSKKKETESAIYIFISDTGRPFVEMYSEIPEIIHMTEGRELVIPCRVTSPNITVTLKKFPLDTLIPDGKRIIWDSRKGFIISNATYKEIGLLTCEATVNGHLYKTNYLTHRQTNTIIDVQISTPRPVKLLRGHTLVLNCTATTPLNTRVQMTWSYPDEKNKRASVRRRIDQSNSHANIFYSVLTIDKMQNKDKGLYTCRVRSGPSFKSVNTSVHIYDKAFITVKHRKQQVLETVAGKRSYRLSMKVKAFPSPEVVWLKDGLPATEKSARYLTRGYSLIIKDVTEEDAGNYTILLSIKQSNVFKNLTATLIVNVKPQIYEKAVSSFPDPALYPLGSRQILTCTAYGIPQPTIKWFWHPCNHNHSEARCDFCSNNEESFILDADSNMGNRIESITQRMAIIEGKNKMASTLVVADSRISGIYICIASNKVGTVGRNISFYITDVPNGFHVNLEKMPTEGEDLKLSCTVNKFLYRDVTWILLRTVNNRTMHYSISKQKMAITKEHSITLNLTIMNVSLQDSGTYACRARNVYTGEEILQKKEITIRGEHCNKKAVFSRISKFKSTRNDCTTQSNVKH

B1: anti-human VEGFR-1 antibody 18F1 (antibody, V domains shown)
VH: QAQVVESGGGVVQSGRSLRLSCAASGFAFSSYGMHWVRQAPGKGLEWVAVIWYDGSNKYYADSVRGRFTISRDNSENTLYLQMNSLRAEDTAVYYCARDHYGSGVHHYFYYGLDVWGQGTTVTVSS
VL: not shown
notes: Fully human antibody (gamma heavy chain, kappa light chain) from hybridomas of KM transgenic mice, purified; The light chain entry runs a few residues into the kappa constant region; also called MC-18F1; IMC-18F1
EC50 (read off the curve) [1]: ~3 ng/mL | Kd [2]: 0.054 nM | kon [2]: 810000 M⁻¹ s⁻¹
